Data on 1 substance can be found in paper PMC7699480.

One experiment has as its target IgG-SpyTag. In words: electrophoresis on a bioanalyzer after covalent ligation; time course at 1:1 molar ratio; IgG-SpyTag 10 µM; ∆N-SpyCatcher-DFO kept at RT or heated for 1 h beforehand; reaction stopped by 10-fold dilution and storage at −80 °C; read-out is the share of heavy chain converted.
Experiment [1] concerns the target nimotuzumab-SpyTag (human (hG1 in the plasmid's name)). The experiment in a line: electrophoresis on a bioanalyzer after covalent ligation; nimotuzumab-SpyTag (10 µM) ligated with ∆N-SpyCatcher-DFO (20 µM), 1:1 SpyTag:SpyCatcher; molecular weight of the whole conjugate.
Experiment [2] has the same target. In words: electrophoresis on a bioanalyzer after covalent ligation; ∆N-SpyCatcher-DFO reacted with IgG-SpyTag at molar ratios 0:1, 1:4, 1:2, 1:1 and 2:1; 1 h, PBS, room temperature; products analysed under reducing conditions; read-out is the share of heavy chain shifted from ~64 kDa to ~81 kDa.
Experiment [3] concerns the target control-IgG-SpyTag (human (hG1 in the plasmid's name)). Described as above.

Sequence of nimotuzumab-SpyTag (human (hG1 in the plasmid's name)) (heavy, as listed by the source, chain 1 of 2): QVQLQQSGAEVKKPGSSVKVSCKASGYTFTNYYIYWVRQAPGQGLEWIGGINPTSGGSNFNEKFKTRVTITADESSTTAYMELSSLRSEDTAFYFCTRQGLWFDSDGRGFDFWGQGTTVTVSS
Sequence of nimotuzumab-SpyTag (human (hG1 in the plasmid's name)) (light, as listed by the source, chain 2 of 2): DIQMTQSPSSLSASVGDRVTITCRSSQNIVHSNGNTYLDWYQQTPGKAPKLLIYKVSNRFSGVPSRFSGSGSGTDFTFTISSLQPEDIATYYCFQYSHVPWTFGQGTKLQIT

As a reminder, the stoichiometry N is a count of units in the complex or per binding partner. In the case of ∆N-SpyCatcher-DFO (designed binder), in the experiment with IgG-SpyTag, the percent of heavy chain converted (1 min) was found to be 35%, the percent of heavy chain converted (15 min) was found to be 94% and the percent of heavy chain converted (stopped reaction) was 13%. The same substance returned a stoichiometry N in experiment [1] of 2. In experiment [2], the percent of heavy chain conjugated (SpyCatcher:SpyTag 1:1) came to 99%, the percent of heavy chain conjugated (SpyCatcher:SpyTag 1:2) turned out to be 50% and the percent of heavy chain conjugated (SpyCatcher:SpyTag 1:4) came to 25%. Also, in experiment [3], the percent of heavy chain conjugated (SpyCatcher:SpyTag 1:1) is 99%, the percent of heavy chain conjugated (SpyCatcher:SpyTag 1:2) worked out at 50% and the percent of heavy chain conjugated (SpyCatcher:SpyTag 1:4) came out at 25%.
